Measurements from paper doi:10.64898/2025.12.12.693941 (bioRxiv, 2025).
Substitutions are numbered along the chain they refer to. Names and notes keep the numbering of the source.

B1: M. tuberculosis Ku R262A (natural protein)
chain: MRAIWTGSIAFGLVNVPVKVYSATADHDIRFHQVHAKDNGRIRYKRVCEACGEVVDYRDLARAYESGDGQMVAITDDDIASLPEERSREIEVLEFVPAADVDPMMFDRSYFLEPDSKSSKSYVLLAKTLAETDRMAIVHFTLRNKTRLAALRVKDFGKREVMMVHTLLWPDEIRDPDFPVLDQKVEIKPAELKMAGQVVDSMADDFNPDRYHDTYQEQLQELIDTKLEGGQAFTAEDQPRLLDEPEDVSDLLAKLEASVKAASKANSNVPTPP
B2: M. tuberculosis Ku N266A (natural protein)
chain: B1 chain with A262R, N266A
B3: M. tuberculosis Ku, wild type, His-tagged and RED-tris-NTA labelled (MST ligand) (natural protein)
chain: B1 chain with A262R
B4: M. tuberculosis Ku S258A (natural protein)
chain: B1 chain with S258A, A262R
B5: M. tuberculosis Ku V248A (natural protein)
chain: B1 chain with V248A, A262R
B6: M. tuberculosis Ku E256A (natural protein)
chain: B1 chain with E256A, A262R
B7: M. tuberculosis Ku K260A (natural protein)
chain: B1 chain with K260A, A262R
B8: M. tuberculosis Ku S263A (natural protein)
chain: B1 chain with A262R, S263A
B9: M. tuberculosis Ku E246A (natural protein)
chain: B1 chain with E246A, A262R
B10: M. tuberculosis Ku, wild type, His-tag removed by TEV (MST analyte) (natural protein)
chain: B1 chain with A262R

Legend:
[1] = molecular target: M. tuberculosis LigD, wild type, His-tag removed by TEV (MST analyte) (M. tuberculosis, UniProt P9WNV3 1-759); experiment: MST
SEC-MALS = molecular target: the molecule itself; experiment: SEC-MALS
[2] = molecular target: M. tuberculosis LigD D162R (M. tuberculosis, UniProt P9WNV3 1-759, D162R); experiment: MST
[3] = molecular target: M. tuberculosis LigD R198E (M. tuberculosis, UniProt P9WNV3 1-759, R198E); experiment: MST
[4] = molecular target: M. tuberculosis LigD V194D (M. tuberculosis, UniProt P9WNV3 1-759, V194D); experiment: MST
[5] = molecular target: M. tuberculosis LigD K579E (M. tuberculosis, UniProt P9WNV3 1-759, K579E); experiment: MST
[6] = molecular target: M. tuberculosis LigD L580E (M. tuberculosis, UniProt P9WNV3 1-759, L580E); experiment: MST

Row | Binder | binding result [1] | stoichiometry N (SEC-MALS) | other results
1 | B1 | binds | 2 | –
2 | B2 | – | 2 | –
3 | B3 | – | – | Kd [1]: 850 nM
4 | B4 | binds | 2 | –
5 | B5 | binds | 2 | –
6 | B6 | binds | 2 | –
7 | B7 | binds | 2 | –
8 | B8 | binds | 2 | –
9 | B9 | binds | 2 | –
10 | B10 | – | – | binding result [2]: binds; binding result [3]: binds; binding result [4]: binds; Kd [5]: 510 nM; Kd [6]: 1270 nM
